Biological target: T1, receptor-binding domain of the SARS-CoV-2 spike protein fused to the maltose-binding protein (SARS-CoV-2, wild-type (Wuhan-Hu-1 …, UniProt P0DTC2))
T1 construct: also called MBP-RBD; RBD-MBP
Assay: BLI
Conditions: both partners purified

B1: VHH72 nanobody (VHH)
VHH: QVQLQESGGGLVQAGGSLRLSCAASGRTFSEYAMGWFRQAPGKEREFVATISWSGGSTYYTDSVKGRFTISRDNAKNTVYLQMNSLKPDDTAVYYCAAAGLGTVVSEWDYDYDYWGQGTQVTVSS
notes: not shown: ecotin, N-terminal, cleaved; His-tag, N-terminal, cleaved
- binding result: binds
